From patent US20030157090A1 (published 2003)

Legend:
[1] = molecular target: cucumber mosaic virus (CMV), purified (cucumber mosaic virus); assay: SPR (BIAcoreX), purified CMV amine-coupled to a CM5 chip, scFv in flow; kD=koff/kon
lysozyme (Sigma) [2] = molecular target: T1, lysozyme (Sigma) (chicken, UniProt P00698 19-147); assay: ELISA on coated lysozyme, E. coli periplasmic extracts normalized for total protein
T1 construct: also called lysozime; Lisozyme

lysozyme (Sigma) [3] = molecular target: T1, lysozyme (Sigma); assay: column 'Specificity' of Table I; clone selected from the monoscaffold phage library and screened by ELISA

T1 sequence (P00698 19-147): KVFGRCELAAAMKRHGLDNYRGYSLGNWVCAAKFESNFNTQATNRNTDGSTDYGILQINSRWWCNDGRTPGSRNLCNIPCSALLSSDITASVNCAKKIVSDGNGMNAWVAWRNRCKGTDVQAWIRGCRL

B1: scFv(CMV-4G) (scFv)
scFv: QVQLQESGGDLVQPGGSLKLSCAASGFTFSSYGMSWVRQTPDKRLELVATINSNGGSTFYPDSVKGRFTISRDNAKNTLYLQMSSLKSEDTAMYYCARNNWSFDYWGQGTTVTVSSGGGGSGGGGSGGGGSDIELTQSPASLAVSLGQRATISCRASESVHNYMHWYQQKPGQPPKLLIYRALNLESGIPARFSGSGSRTDFTLTINPVEADDVATYYCQQGQRKPWTFGGGTKLEIKR
Kd [1]: 60 nM

B2: scFv(CMV-4B) (scFv)
scFv: QVQLQESGGDLVQPGGSLKLSCAASGFTFSSYGMSWVRQTPDKRLELVATINSNGGSTFYPDSVKGRFTISRDNAKNTLYLQMSSLKSEDTAMYYCARNNYSFDYWGQGTTVTVSSGGGGSGGGGSGGGGSDIELTQSPASLAVSLGQRATISCRASESVHNYMHWYQQKPGQPPKLLIYRALNLESGIPARFSGSGSRTDFTLTINPVEADDVATYYCQQGRRAPWTFGGGTKLEIKR
Kd [1]: 10 nM

B3: scFv(P5) (scFv)
scFv: QVQLQESGGDLVQPGGSLKLSCAVSGFSLTGYGVNWVRQTPDKRLEWVAMIWGDGNTDYNSSVKGRFTISKDNAKSTVYLQMSSLKSEDTAMYYCARERDYRLDYWGQGTTVTVSSGGGGSGGGGSGGGGSDIELTQSPASLAVSLGQRATISCRASGNIHNYLAWYQQKPGQPPKLLIYYTTTLADGIPARFSGSGSGTDYTLTINPVEADDVATYYCQHFWSTPRTFGGGTKLEIKR
notes: Last product of mutagenesis, with the highest number of substitutions; also called P5 mutant; LYS/P5
binding result (lysozyme (Sigma) [2]): binds

B4: scFv(LYS-11E) (scFv)
scFv: QVQLQESGGDLVQPGGSLKLSCAASGFTFSSYGMSWVRQTPDKRLELVATINSNGGSTFYPDSVKGRFTISRDNAKNTLYLQMSSLKSEDTAMYYCARTRPYFDYWGQGTTVTVSSGGGGSGGGGSGGGGSDIELTQSPASLAVSLGQRATISCRASESVHNYMHWYQQKPGQPPKLLIYRALNLESGIPARFSGSGSRTDFTLTINPVEADDVATYYCQQVTYKPWTFGGGTKLEIKR
notes: also called scFv(HEL-11E)
binding result (lysozyme (Sigma) [3]): binds
